The source of these data is article PMC12378399 (Metallomics : integrated biometal science, 2025).

Read-outs that look alike come from different tables or passages of the source.

In one assay the target is SufS (with SufE) (Escherichia coli, UniProt P77444). The note with it: 50 mM MOPS pH 8.0, 150 mM NaCl, 2 mM TCEP, 500 μM L-cysteine, SufE 0.25-3 μM varied (not cysteine).
In assay [1] the target is BODIPY-labeled SufE C51A/E107C (SufEDM) (E. coli) (UniProt P76194). The assay can be described thus: fluorescence polarisation. In general terms: Fluorescence polarisation rises when a labelled molecule tumbles more slowly, as on binding a larger partner.
For assay [2], the target named is SufS (Escherichia coli) (UniProt P77444). The note with it: cited from earlier work.
Chain of SufS (Escherichia coli) (P77444 whole entry): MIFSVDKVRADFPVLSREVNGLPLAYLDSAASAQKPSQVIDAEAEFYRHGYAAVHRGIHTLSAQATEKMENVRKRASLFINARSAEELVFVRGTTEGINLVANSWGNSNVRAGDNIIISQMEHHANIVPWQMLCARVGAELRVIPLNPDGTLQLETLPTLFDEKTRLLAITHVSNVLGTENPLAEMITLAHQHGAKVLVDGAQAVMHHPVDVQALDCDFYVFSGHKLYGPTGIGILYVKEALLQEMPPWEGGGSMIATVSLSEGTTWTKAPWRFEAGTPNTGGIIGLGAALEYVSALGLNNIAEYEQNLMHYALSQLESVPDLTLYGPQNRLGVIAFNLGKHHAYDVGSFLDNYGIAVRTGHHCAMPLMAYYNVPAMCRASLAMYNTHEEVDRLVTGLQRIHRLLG
Assay [3] has the same target. The note with it: cited from earlier work. This is another data set of the same source.
Assay [4] has as its target SufBC2D (Escherichia coli) (UniProt P77522). The assay can be described thus: surface plasmon resonance. The note with it: cited from earlier work. Background: In SPR one partner is held on a chip, and binding of the other changes the refractive index at the surface.
For assay [5], the target named is SufBC2D scaffold complex (His6-SufBCD) (E. coli) (UniProt P77522).
Chain of SufBC2D scaffold complex (His6-SufBCD) (E. coli) (P77522 whole entry, chain 1 of 3): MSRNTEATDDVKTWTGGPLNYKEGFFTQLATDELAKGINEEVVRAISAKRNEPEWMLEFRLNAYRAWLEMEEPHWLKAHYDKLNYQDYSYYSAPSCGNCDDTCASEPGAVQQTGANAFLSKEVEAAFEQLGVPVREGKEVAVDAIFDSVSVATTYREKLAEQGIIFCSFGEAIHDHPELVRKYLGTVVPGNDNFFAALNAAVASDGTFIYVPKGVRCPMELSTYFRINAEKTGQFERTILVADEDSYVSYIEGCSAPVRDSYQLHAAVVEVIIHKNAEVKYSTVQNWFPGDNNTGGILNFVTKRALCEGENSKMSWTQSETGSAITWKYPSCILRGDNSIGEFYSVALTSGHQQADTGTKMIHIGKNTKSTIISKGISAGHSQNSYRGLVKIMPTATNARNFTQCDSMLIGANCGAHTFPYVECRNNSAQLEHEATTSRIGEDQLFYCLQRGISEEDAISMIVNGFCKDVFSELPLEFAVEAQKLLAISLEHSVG
Chain of SufBC2D scaffold complex (His6-SufBCD) (E. coli) (P77499 whole entry, chain 2 of 3, further chain): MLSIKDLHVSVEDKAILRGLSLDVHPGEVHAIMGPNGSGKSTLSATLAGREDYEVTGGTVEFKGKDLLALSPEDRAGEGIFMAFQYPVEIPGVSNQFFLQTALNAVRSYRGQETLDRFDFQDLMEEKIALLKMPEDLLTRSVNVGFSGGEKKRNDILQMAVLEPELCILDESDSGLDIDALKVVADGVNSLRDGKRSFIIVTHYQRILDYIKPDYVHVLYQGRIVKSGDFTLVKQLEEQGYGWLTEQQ
Chain of SufBC2D scaffold complex (His6-SufBCD) (E. coli) (P77689 whole entry, chain 3 of 3, further chain): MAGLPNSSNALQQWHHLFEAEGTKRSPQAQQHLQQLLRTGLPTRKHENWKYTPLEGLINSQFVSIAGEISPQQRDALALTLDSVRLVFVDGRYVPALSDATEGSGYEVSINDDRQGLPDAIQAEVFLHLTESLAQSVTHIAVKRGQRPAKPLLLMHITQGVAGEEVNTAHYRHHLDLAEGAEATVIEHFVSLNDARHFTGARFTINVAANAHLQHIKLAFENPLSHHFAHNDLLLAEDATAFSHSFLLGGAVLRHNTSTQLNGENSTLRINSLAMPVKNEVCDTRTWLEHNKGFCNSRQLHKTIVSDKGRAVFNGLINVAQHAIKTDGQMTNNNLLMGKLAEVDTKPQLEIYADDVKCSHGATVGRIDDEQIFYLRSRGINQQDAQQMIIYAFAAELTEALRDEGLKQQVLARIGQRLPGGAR
Assay [6] shares this target. The assay can be described thus: steady-state enzyme inhibition.

Chain of SufS (with SufE) (P77444 whole entry, one chain of several): as the sequence (P77444 whole entry) above
Chain of SufBC2D (Escherichia coli) (P77522 whole entry, chain 1 of 3): as the sequence (P77522 whole entry, chain 1 of 3) above
Chain of SufBC2D (Escherichia coli) (P77499 whole entry, chain 2 of 3, further chain): as the sequence (P77499 whole entry, chain 2 of 3, further chain) above
Chain of SufBC2D (Escherichia coli) (P77689 whole entry, chain 3 of 3, further chain): as the sequence (P77689 whole entry, chain 3 of 3, further chain) above

For the molecule `N[C@@H](CS)C(=O)O` [L-cysteine], the “NDA-alanine fluorescence detection of L-alanine produced” value on SufS (with SufE) is on record as “Cysteine desulfurase activity of SufS was measured by quantifying the amount of L-alanine produced”.

In the case of “SufBC2D scaffold complex (His6-SufBCD) (from UniProt P77522 1-495; P77499 1-248; P77689 1-423)”, in assay [1], the Kd amounted to 1600 nM.

With SufE (from UniProt P76194), the Kd with SufS (Escherichia coli) [2] is 500 nM; in the assay with SufS (Escherichia coli) [3], 5000 nM; in assay [4], 2800 nM.

B1: SufE (wildtype) (natural protein)
chain: MALLPDKEKLLRNFLRCANWEEKYLYIIELGQRLPELRDEDRSPQNSIQGCQSQVWIVMRQNAQGIIELQGDSDAAIVKGLIAVVFILYDQMTPQDIVNFDVRPWFEKMALTQHLTPSRSQGLEAMIRAIRAKAAALS
As to B1, in assay [5], the IC50 of inhibition of SufBC2D ATPase activity in the presence of 500 μM Mg2+-ATP turned out to be 1000 nM. This molecule showed a Ki in assay [6] of 1800 nM.

B2: Carbamidomethylated SufE (SufE-alk) (natural protein)
chain: B1 chain
modifications: C51 alkylated (carbamidomethylated with iodoacetamide)
The molecule B2 had a Ki in assay [6] of 2500 nM.

Broadly, the Kd is the constant that tells how readily two partners part at equilibrium. The term Ki denotes a dissociation constant, usually derived from enzyme kinetics or from competition with a known ligand. The low end stands for a stronger hold on the target, the high end for a looser hold on the target.
